Results as given in doi:10.1101/2023.02.09.527830.

Target: Lassa virus nucleoprotein NP (WT) (Lassa virus (AV strain), UniProt Q9DQX7)
Assay: native MS

ACACAAAGACCC (ssRNA) [12 nt RNA]
binding result: binds

UAGGAAUCU (ssRNA) [9 nt RNA]
binding result: binds
